Test results from the nanobody polyreactivity screen of Harvey et al. (2022).

Experiment: yeast display, Sf9 membrane polyspecificity reagent, FACS + sequencing; frameworks hold sequencing errors
Procedure, shortened: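 A nanobody's polyreactivity label depends on the gate it was sorted from. Yeast display cells were stained with 10% biotinylated, detergent-solubilized Sf9 membrane reagent for 1 hour at 4 °C, enriched on streptavidin microbeads and sorted by FACS. The low and high (top ~1%) gates were set on anti-HA fluorescence for expression and streptavidin fluorescence for reagent binding.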

Row | Sequence | polyreactivity (PSR sort gate)
1 | QVQLVESGGGLVQAGGSLRLSCASSGRTYTLNAMGWYRQAPGKERELVAAIRRGGSTYYADSVKGRFTISRDNAKNTVYLQMNSLKPEDTAVYYCAARGTGYHGYGYWGQGTQVTVSS | high polyreactivity
2 | QVQLVESGGGLVQAGGSLRLSCASSGSIFQYNAMGWYRQAPGKERELVAAINGGGSTYYADSVRGRFTISRDNAKNTVYLQMNSLKPEDTAVYYCAARHGESHYDYWGQGTQVTVSS | low polyreactivity
3 | QVQLVESGGGLVQAGGSLRLSCASSGSIFVTYTMGWYRQAPGKERELVATISGGSSTYADSVKGRFTISRDNAKNTVYLQMNSLKPEDTAVYYCNAVWYFKPPPLYYIPYRQYDYWGQGTQVTVSS | low polyreactivity
4 | QVQLVESGGGLVQAGGSLRLSCASSGSIFYVNTMGWYRQAPGKERELVATISVSGGSTNYADSVKGRFTISRDNAKNTVYFQMNSLKPEDTAVYYCAEAYLRYYDGPYDYWGQGTQVTVSS | low polyreactivity
5 | QVQLVESGGGLVQAGGSLRLSCASSGSIGYYAMGWYRQAPGKERELVAAIDWSGGDTYYADSVKGRFTISRDNAKNTVYLQMNSLKPEDTAVYYCAADAGRYLPDCTYDYWGQGTQVTVSS | low polyreactivity
6 | QVQLVESGGGLVQAGGSLRLSCASSGSILYVYAMGWYRQAPGKERELVAAISTSGVSTYYADSVKGRFTISRDNAKNTVYLQMNSLKPEDTAVYYCAATVSRGFYSWWYDYWGQGTQVTVSS | low polyreactivity
7 | QVQLVESGGGLVQAGGSLRLSCASSGSTFAPNAMGWYSQAPGKEREFVAAITYRGSSTYYADSVKGRFTISRDNAKNTVYLQMNSLKPEDTAVYYCAADYVEYKVRSYDYWGQGTQVTVSS | low polyreactivity
8 | QVQLVESGGGLVQAGGSLRLSCASSGSTFSSYAMGRYRQAPGKERELVAAITRGGSTNYADSVKGRFTISRDNAKNTVYLQMNSLKPEYTAVYYCAADGPIVGTMDYWGQGTQVTVSS | high polyreactivity
9 | QVQLVESGGGLVQAGGSLRLSCASSGSTFTGNAMGWYRQAPGKERELVAAISYRGVSTSYADSVKGRFTISRDNAKNTVYLQMNSLKPEDTAVYYCAKRRSLVRSIPFDSWGQGTQVTVSS | low polyreactivity
10 | QVQLVESGGGLVQAGGSLRLSCASSGSTFWFYAMGWYRQAPGKERELVAAITRSAGSTYYADSVKGRFTISRDNAKNTVYLQMNSLKPEGTAVYYCAAQRESLYGGFDYWGQGTQVTVSS | low polyreactivity
11 | QVQLVESGGGLVQAGGSLRLSCASSGSTFYNNALGWYRQAPGKERELVAAISNVSTYYADSVKGRFTISRDNAKNTVYLQLISLKPEDTAVYYCAARGLLWYYSWRYYFWGQGTQVTVSS | low polyreactivity
12 | QVQLVESGGGLVQAGGSLRLSCASSGSTFYPNAMGWYRQAPGKERELVAAISRSGGSTYYADSVKGRFTISRDNAKNTVYLQMNSLKPEDTGVYYCAADGRSPSRYDYWGQGTQVTVSS | low polyreactivity
13 | QVQLVESGGGLVQAGGSLRLSCASSGSTFYRYAMGWYRQAPGKERELVARINTGGSTSYAYSVKGRFTISRDNAKNTVYLQKNSLKPVDTAVYYCAASSRYAVFGRYYYWGQGTQVTVSS | high polyreactivity
14 | QVQLVESGGGLVQAGGSLRLSCASSGSTFYSYVMGWYRQAPGKERELVAVISNDGSTNYADSVKGRFTISRDNAKNSVYLQMNSLKPEDTAVYYCDALKFVRAYRYYYWGQGTQVTVSS | low polyreactivity
15 | QVQLVESGGGLVQAGGSLRLSCASSGSTFYTNAMGWYRQAPGKERELVAGISSGGSTYYADSVKARFTISRDNAKNTVYLQINSLKPEDTAVYYCAAVERTRYWEFYYWGQGTQVIVSS | high polyreactivity
16 | QVQLVESGGGLVQAGGSLRLSCASYGYTFFNYAKGWYRQAPGKERELVAAITTGGSTYYADSVKGRFTISRDNAKNTVYLQMNSLKPEDTAVYYCPFDYWGQGTQVTVSS | high polyreactivity
17 | QVQLVESGGGLVQAGGSLRLSCATSGFIFSLYAMGWYRQAPGKERELVAAINWNGGRTYYADSVKGRFTISRDNAKNTVYLQMDSLKPEDTAVYYCATRSGSYSYPAVGGWGLGYWGQGTQVTVSS | high polyreactivity
18 | QVQLVESGGGLVQAGGSLRLSCATSGSIFYRYAMGWYRQAPGKEREFVAAIRWRGGSTYYADSVKGRFTISRDNAKNTVYLQMNSLKPEDTAVYYCAAPTVQSYNYWGQGTQVTVSS | high polyreactivity
19 | QVQLVESGGGLVQAGGSLRLSCAVSGRIFRRNVMGWSRPAPGKERALVAGSSYSGDSTYYADSVKGRFTISRDNAKNTVYLQMNSLKPEDTAVYYCAAALAHYRGMYYWGQGTQVTVSS | low polyreactivity
20 | QVQLVESGGGLVQAGGSLRLSCAVSGRIFRRNVMGWYRQAPGKERELVAGSSYSGDSTYYADSVKGRFTISRDNAKNTVYLQMNRLKPEDTAVYYCAAALAHYRGMYYWGQGTQVTVSS | high polyreactivity
21 | QVQLVESGGGLVQAGGSLRLSCCASGFTFIVYSMGWYRQSPGKERELVAAITQSGGSTFYADSVKGRFTISRDNAKNTVYLQMNSLKPEDTAVYYCNAYRKFRYWGQGTQVTVSS | low polyreactivity
22 | QVQLVESGGGLVQAGGSLRLSCCASGRTFLDNALGWYRQAPGKERQLVAAISGGGGTYYADSVKGRFTISRDNAKNTVYLQMNSLKPEDTAVYYCATDRGHKWVFYVTYYRYESWGQGTQVTVSS | low polyreactivity

Row | Sequence | polyreactivity (PSR sort gate)
23 | QVQLVESGGGLVQAGGSLRLSCDASGFIFYSYAMGWYRQAPGKERELVAGITSGGITSYADSVKGRFTISRDNAKNTVYLQMNSLKPEDTAVYYCAKDVRSYRISVYGVGYWGQGTQVTVSS | high polyreactivity
24 | QVQLVESGGGLVQAGGSLRLSCDASGFNFASNDMGWYRPAPGKERELVAAITKGGGRTYYADSVKGRFTISRDNAKNTVYLQMNSLKPEDTAVYYCAARQLIKYDYWGQGTQVTVSS | low polyreactivity
25 | QVQLVESGGGLVQAGGSLRLSCDASGFTFYSYARGWYRQAPGKEREFVASISRSGGSTYYADSVKGRFTISRDNAKYTVYLQMNSLKAEDTEVYYCAARSVRDRDGGDYWGQGTQVTVSS | high polyreactivity
26 | QVQLVESGGGLVQAGGSLRLSCDASGGIFFYNTLRCSRQAPGKERELVAAITTNGDSTYYADSVKGRFTISRDNAKYTVYLQMNSLKPVDTAVYYCATPLELFASFSFSHYVYLFDSWGQGTQVNVSS | low polyreactivity
27 | QVQLVESGGGLVQAGGSLRLSCDASGIIFKKYAMGWNRQAPGKERELVAVITRGGSTNYADSVKGRFTISRDNAKNTVYLQMNSLKPEDTAVYYCNADSGSYHGWYGGDYGGQGTQVTVSS | low polyreactivity
28 | QVQLVESGGGLVQAGGSLRLSCDASGIILNINAMGWYRQAPGKERELVAAITSDGSTNYADSVKGRFTISRDNAKNTVYLQMNSLKPEDTAVYYCAVDLPWGTGVSQYPESDYWGQGTQVTVSS | low polyreactivity
29 | QVQLVESGGGLVQAGGSLRLSCDASGITFASYAMGWYRQAPGKERELVAAISWGGSRTYYADSVKGRFTISRDNAKNTVYFQMNSLKPVDTAVYYCNAHTRYGPDYSYYYWGQGTQVTVSS | high polyreactivity
30 | QVQLVESGGGLVQAGGSLRLSCDASGITFIRNGMGWYRQAPGKERELVAAISDTGARTYYADSVKGRFTISRDNAKNTVYLQMNSLKPEDTAVYYCAAEVRTRYLYSFRWDDYWGQGTQVTVSS | low polyreactivity
31 | QVQLVESGGGLVQAGGSLRLSCDASGITFQYYAMGWYRQAPGKERELVAAINWRGGTTYYADSVKGRITISRDNAKNTVYLQMNSLIPEDNEVYYCAADYYYQAGFYYWGQGTQVTVSS | low polyreactivity
32 | QVQLVESGGGLVQAGGSLRLSCDASGITQTVYAMGWYRQSPGKERELVAGIDWVGDTYADSVKGRFTISRDNAKNTVYLQMNSLKPEDTAVYYCAADNYSQGVPYDYWGQGSQVTVSS | low polyreactivity
33 | QVQLVESGGGLVQAGGSLRLSCDASGLIFITYAMRWYRQAPGKERELVATITLRGGSTYYADSVKGRFTISRDNAKNTVYLQMNSLKPEDTAVYYCAAEVGYWGRSRGYPSDDYDYCGQGTQVTVSS | low polyreactivity
34 | QVQLVESGGGLVQAGGSLRLSCDASGLTFPYYTMGWYRQAPGKERELVADINGSGGSTYYADSVKGRFTISLDNAKNTFYLQMNSLKPEDTEVYYCAAGSWQVAISYDYWGQGTQVTVSS | low polyreactivity
35 | QVQLVESGGGLVQAGGSLRLSCDASGNILPSNAMGWYRQAPGKERELVAAITWSVGRTYYADSVKGRFTISRDNAKNTVYLQMNSLKPEDTAVYYCNAQDTPYEGRYDESEYDYWGQGTQVTVSS | low polyreactivity
36 | QVQLVESGGGLVQAGGSLRLSCDASGNTFSRYAMGWYRQAHGKERELVAAITSSGGSTYYADSVKGRFTISRDNAKNTVYLQMNSLKPEDTAVYYCAATSYYTREHYYYWGQGTQVTVSS | high polyreactivity
37 | QVQLVESGGGLVQAGGSLRLSCDASGNTFVRYAMGWFRQAPGKERELVAGISASGGSTSYADSVKGRFTISRDNAKNTVYLQMNSLKPEDTAVYYCARNYWLYSSSYDSWGQGTQVTVSS | high polyreactivity
38 | QVQLVESGGGLVQAGGSLRLSCDASGNTSSYYTMGWYRQAPGKERELGARISNRGTNTYYAESVKGRVTISRDNAKNTVYLQMNSLKPEDTAVYYCAALYWFYVYPFTEYDYWGQGTQVTVSS | low polyreactivity
39 | QVQLVESGGGLVQAGGSLRLSCDASGRHFKRYDMGWYRQAPGKERELVAAISWSGTSTHYADSVKGRLTISRDNAKNTVYLQMNSLKPEDTAVYYCAAYWFNTSYPGRYDYWGQGTQVTVSS | high polyreactivity
40 | QVQLVESGGGLVQAGGSLRLSCDASGRIFFNTMGWYRQAPGKERELVAAISSGGSTSYADSVKGRFTISRDNAKNTVYLQMNSLKPEDTAVYYCADLKLYIYDYWGQGTQVTVSS | high polyreactivity
41 | QVQLVESGGGLVQAGGSLRLSCDASGRIFGLYDMGWYRQAPGKERELVAAISRGGGSTYYADSVKGRFTISRDNAKNTVYLQMNSLKPEDTAVYYCATGLGYFSRLDYWGQGTQVTVSS | low polyreactivity
42 | QVQLVESGGGLVQAGGSLRLSCDASGRIFGYTMGWYIQAPGKERELVAAISKSGGSTYYADSVKGRFTISRDNAKNTVYLQMNSLKPEDTAVYYCNKPQRILYDYWGQGTQVTVSS | high polyreactivity
43 | QVQLVESGGGLVQAGGSLRLSCDASGRIFHYNSMGWYRQAPGKERELVAAISTGGSTNYADSVKGRFTISRDNAKNTVYLQMNSLKPEDTAVYYCAADHPVTYPTSKFDYWGQGTQVTVSS | low polyreactivity
